Measured values reported in patent US20140072613A1 (published 2014).

Columns and labels:
Test in all cases: cell-based or functional assay
MSK2(h) = MSK2(h) (human, UniProt O75676 1-772, limits assumed)
Aurora-A(h) = target: T1, Aurora-A(h) (human, UniProt O14965 1-403)
T1 sequence (looked up): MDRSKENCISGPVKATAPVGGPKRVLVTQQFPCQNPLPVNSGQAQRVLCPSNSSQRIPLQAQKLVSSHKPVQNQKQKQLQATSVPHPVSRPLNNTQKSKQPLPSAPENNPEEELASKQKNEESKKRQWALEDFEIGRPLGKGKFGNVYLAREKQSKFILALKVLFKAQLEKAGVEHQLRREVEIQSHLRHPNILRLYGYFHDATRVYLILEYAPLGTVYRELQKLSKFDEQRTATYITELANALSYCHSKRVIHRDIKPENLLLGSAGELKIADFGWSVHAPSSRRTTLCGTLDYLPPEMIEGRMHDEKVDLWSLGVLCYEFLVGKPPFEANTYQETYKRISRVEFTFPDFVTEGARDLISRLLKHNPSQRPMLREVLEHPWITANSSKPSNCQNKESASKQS

EGFR(T790M)(h) = EGFR(T790M)(h) (human, UniProt P00533 696-1210, limits assumed)
PKCγ(h) = PKCγ(h) (human, UniProt P05129 1-697)
MRCKβ(h) = target: T2, MRCKβ(h) (human, UniProt Q9Y5S2 1-473, limits assumed)
T2 sequence (looked up): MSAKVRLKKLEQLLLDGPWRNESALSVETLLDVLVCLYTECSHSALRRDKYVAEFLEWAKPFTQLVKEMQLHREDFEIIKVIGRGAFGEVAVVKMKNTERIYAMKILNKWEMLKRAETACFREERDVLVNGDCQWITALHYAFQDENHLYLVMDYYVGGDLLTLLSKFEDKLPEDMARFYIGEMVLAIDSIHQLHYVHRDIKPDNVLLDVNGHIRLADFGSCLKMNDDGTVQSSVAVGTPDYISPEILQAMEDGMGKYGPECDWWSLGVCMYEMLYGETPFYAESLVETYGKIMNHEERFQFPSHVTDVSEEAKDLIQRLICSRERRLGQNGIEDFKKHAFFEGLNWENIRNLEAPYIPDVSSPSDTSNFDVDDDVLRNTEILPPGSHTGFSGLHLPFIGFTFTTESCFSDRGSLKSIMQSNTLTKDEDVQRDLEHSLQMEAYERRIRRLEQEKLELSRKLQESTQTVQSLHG

Fer(h) = Fer(h) (human, UniProt P16591 541-822, limits assumed)
JNK1α1(h) = JNK1α1(h) (human, UniProt P45983-2 1-384)
Rsk1(h) = Rsk1(h) (human, UniProt Q15418 1-735)
IR(h) = IR(h) (human, UniProt P06213 1005-1310, limits assumed)
DCAMKL2(h) = target: T3, DCAMKL2(h) (human, UniProt Q8N568 372-714, limits assumed)
T3 sequence (looked up): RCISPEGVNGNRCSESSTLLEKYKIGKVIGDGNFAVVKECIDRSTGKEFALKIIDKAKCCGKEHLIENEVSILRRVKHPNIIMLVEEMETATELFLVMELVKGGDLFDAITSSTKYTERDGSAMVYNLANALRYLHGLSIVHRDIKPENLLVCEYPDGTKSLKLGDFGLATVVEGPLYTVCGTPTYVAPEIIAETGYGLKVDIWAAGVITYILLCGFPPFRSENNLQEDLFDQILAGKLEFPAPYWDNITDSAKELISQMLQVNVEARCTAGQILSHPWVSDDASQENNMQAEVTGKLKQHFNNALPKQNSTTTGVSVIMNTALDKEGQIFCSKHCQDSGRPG

HIPK2(h) = HIPK2(h) (human, UniProt Q9H2X6 165-564, limits assumed)
SAPK2a(T106M)(h) = SAPK2a(T106M)(h) (human, UniProt Q16539 1-360)
TrkB(h) = TrkB(h) (human, UniProt Q16620 455-822, limits assumed)
BRK(h) = BRK(h) (human, UniProt Q13882 1-451, limits assumed)
PAK4(h) = PAK4(h) (human, UniProt O96013 1-591, limits assumed)
PRK2(h) = PRK2(h) (human, UniProt Q16513 501-984, limits assumed)
Itk(h) = target: T4, Itk(h) (human, UniProt Q08881 352-620, limits assumed)
T4 sequence (looked up): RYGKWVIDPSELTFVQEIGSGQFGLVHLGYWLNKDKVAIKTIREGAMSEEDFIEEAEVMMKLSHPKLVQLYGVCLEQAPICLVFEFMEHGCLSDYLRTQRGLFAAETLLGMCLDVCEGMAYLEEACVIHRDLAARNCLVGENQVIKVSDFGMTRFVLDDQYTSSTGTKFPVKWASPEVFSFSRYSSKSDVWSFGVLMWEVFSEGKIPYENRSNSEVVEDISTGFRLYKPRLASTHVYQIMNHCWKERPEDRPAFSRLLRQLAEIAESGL

p70S6K(h) = p70S6K(h) (human, UniProt P23443 1-421)
CHK2(h) = CHK2(h) (human, UniProt O96017 5-543, limits assumed)

For KAFAKLAARLYRKALARQLGVAA [MMI-0400], the “% activity, 100 µM” value (MSK2(h)) was 52%, the “% activity, 100 µM” value (Aurora-A(h)) was 119% and the “% activity, 100 µM” value (EGFR(T790M)(h)) was 106%. The “% activity, 100 µM” value (PKCγ(h)) was 79%, the “% activity, 100 µM” value (MRCKβ(h)) was 71% and the “% activity, 100 µM” value (Fer(h)) was 108%. For the same binder, the “% activity, 100 µM” value (JNK1α1(h)) was 98%, the “% activity, 100 µM” value (Rsk1(h)) was 54% and the “% activity, 100 µM” value (IR(h)) was 85%. The “% activity, 100 µM” value (DCAMKL2(h)) was 70%, the “% activity, 100 µM” value (HIPK2(h)) was 90% and the “% activity, 100 µM” value (SAPK2a(T106M)(h)) was 99%. The “% activity, 100 µM” value (TrkB(h)) was 8%, the “% activity, 100 µM” value (BRK(h)) was 18% and the “% activity, 100 µM” value (PAK4(h)) was 89%. The “% activity, 100 µM” value (PRK2(h)) was 27%, the “% activity, 100 µM” value (Itk(h)) was 63% and the “% activity, 100 µM” value (p70S6K(h)) was 33%. For the same binder, the “% activity, 100 µM” value (CHK2(h)) was 54%.

With FAKLAARLYRKALARQLGVAA [MMI-0300] the “% activity, 100 µM” value (MSK2(h)) was 56%, the “% activity, 100 µM” value (Aurora-A(h)) was 92% and the “% activity, 100 µM” value (EGFR(T790M)(h)) was 100%. For the same binder, the “% activity, 100 µM” value (PKCγ(h)) was 89%, the “% activity, 100 µM” value (MRCKβ(h)) was 83% and the “% activity, 100 µM” value (Fer(h)) was 130%. For the same binder, the “% activity, 100 µM” value (JNK1α1(h)) was 97%, the “% activity, 100 µM” value (Rsk1(h)) was 46% and the “% activity, 100 µM” value (IR(h)) was 96%. For the same binder, the “% activity, 100 µM” value (DCAMKL2(h)) was 81%, the “% activity, 100 µM” value (HIPK2(h)) was 73% and the “% activity, 100 µM” value (SAPK2a(T106M)(h)) was 97%. The “% activity, 100 µM” value (TrkB(h)) was 5%, the “% activity, 100 µM” value (BRK(h)) was 35% and the “% activity, 100 µM” value (PAK4(h)) was 94%. For the same binder, the “% activity, 100 µM” value (PRK2(h)) was 33%, the “% activity, 100 µM” value (Itk(h)) was 77% and the “% activity, 100 µM” value (p70S6K(h)) was 35%. For the same binder, the “% activity, 100 µM” value (CHK2(h)) was 66%.
